Data from patent publication US20100310573A1 (Kyowa Kirin, published 2010).

What was measured:
[1] = molecular target: T1, recombinant human CD4 (catalogue number: 514-CD/CF, manufactured by R&D Systems) (human, UniProt P01730 26-390); assay: SPR, Biacore T100; antibody captured on anti-mouse IgG chip, recombinant human CD4 flowed; 1:1 binding model
T1 construct: Bought protein (R&D Systems); also called recombinant CD4
Procedure: In order to kinetically analyze the binding activity of anti-CD4 rat monoclonal antibodies KM4065 to KM4069 and commercially available anti-human CD4 mouse antibody for recombinant human CD4, the binding activity was measured by surface plasmon resonance method (SPR). All of the following manipulations were carried out using the Biacore T100 (manufactured by GE Healthcare Bio-Sciences). The anti-mouse IgG antibody was immobilized on a CM5 sensor chip (manufactured by GE Healthcare Bio-Sciences) by an amine coupling method using a Mouse Antibody Capture Kit (manufactured by GE Healthcare Bio-Sciences) in accordance with the protocols attached thereto. Anti-CD4 rat monoclonal antibodies KM4065 to KM4069, Leu-3a (BD Biosciences), OKT4 (BioLegend) and 13B8.2 (Beckman Coulter) were added to be captured on the anti-mouse IgG antibody-immobilized chip to give 100 RU (resonance unit), respectively. Thereafter, the recombinant human CD4 (manufactured by R&D) diluted from 2500 ng/mL in five steps was allowed to run at a flow rate of 30 μL/min onto the chip, and the sensorgram corresponding to each concentration was obtained. The analysis was carried out in the 1:1 binding model using an analysis software attached to the apparatus, thereby calculating an association rate constant ka and a dissociation rate constant kd of individual antibodies for the human CD4.
As a result, an association rate constant (hereinafter, referred to as “ka”), a dissociation rate constant (hereinafter, referred to as “kd”) and a dissociation constant KD (kd/ka) of individual antibodies thus obtained are given in Table 2.

[2] = molecular target: T1, recombinant human CD4 (catalogue …); assay: SPR, Biacore T100; antibody captured on anti-human IgG chip, recombinant human CD4 flowed; 1:1 binding model
Procedure: (§1) In order to kinetically analyze the binding activity of anti-CD4 chimeric antibodies KM4045 to KM4049, 6G5-1 and 6G5-P to recombinant human CD4, the binding activity was measured by surface plasmon resonance method (SPR). All of the following manipulations were carried out using a Biacore T100 (manufactured by GE Healthcare Bio-Sciences). The anti-human IgG antibody was immobilized on a CM5 sensor chip (manufactured by GE Healthcare Bio-Sciences) by an amine coupling method using a Human Antibody Capture Kit (manufactured by GE Healthcare Bio-Sciences) in accordance with the protocols attached thereto. An assay sample (anti-CD4 chimeric antibodies KM4045 to KM4049) was added to be captured on the anti-human IgG antibody-immobilized chip to give 100 RU (resonance unit). Thereafter, the recombinant human CD4 (manufactured by R&D) diluted from 2500 ng/mL in five steps was allowed to run at a flow rate of 30 μL/min onto the chip, and the sensorgram corresponding to each concentration was obtained. The analysis was carried out in the 1:1 binding model using an analysis software attached to the apparatus, Biacore T100 Evaluation software (manufactured by Biacore), thereby calculating an association rate constant ka and a dissociation rate constant kd of respective antibodies for human CD4.
As a result, an association rate constant ka, a dissociation rate constant kd, and a dissociation constant KD (kd/ka) of individual antibodies thus obtained are given in Table 5.

[3] = molecular target: T1, recombinant human CD4 (catalogue …); assay: as above; remark: listed apart in the source
Procedure: as §1
The measurement of a binding activity was carried out according to the method described in Example 7(2). The association rate constant ka, the dissociation rate constant kd and the dissociation constant KD (kd/ka) of respective antibodies thus obtained are shown in Table 6.

[4] = molecular target: T1, recombinant human CD4 (catalogue …); assay: Biacore T100
[5] = molecular target: T1, recombinant human CD4 (catalogue …); assay: SPR, Biacore T100; summary sentence to Table 6

| Binder | Kd [1] | koff [1] | kon [1] | Kd [2] | koff [2] | kon [2] | Kd [3] | koff [3] | kon [3] | further results |
| --- | --- | --- | --- | --- | --- | --- | --- | --- | --- | --- |
| anti-CD4 rat monoclonal antibody KM4066 (antibody, V domains shown, Rat hybridoma IgG with a kappa light chain) VH: EVQLEESGGGLVQPGRSLKLSCLASGFTFSNYGMNWIRQAPGKGLEWVASISGSSTYIYYADTVKGRFTISRENAENTLYLQMTSLRSEDTALYYCAREGSSTDRYYEVSFAYWGQGTLVTVSS VL: DVVLTQTPVSLSVTLGDQASISCRSSQSLEYSDGYTYLEWYLQKPGQSPQVLIYGVSNRFSGVPDRFIGSGSGTDFTLKISRVEPEDLGVYYCFQATHDPYTFGAGTRLELK | 0.0882 nM | 0.000118 s⁻¹ | 1.34e+06 M⁻¹ s⁻¹ |  |  |  |  |  |  |  |
| anti-CD4 chimeric antibody KM4046 (antibody, V domains shown, Variable regions of rat KM4066 joined to the '113F type' human IgG1/IgG3 heavy chain constant region (US2007/0148165) and a human kappa constant region; Expressed in FUT8 knockout CHO cells (0% fucose)) VH: EVQLEESGGGLVQPGRSLKLSCLASGFTFSNYGMNWIRQAPGKGLEWVASISGSSTYIYYADTVKGRFTISRENAENTLYLQMTSLRSEDTALYYCAREGSSTDRYYEVSFAYWGQGTLVTVSS VL: DVVLTQTPVSLSVTLGDQASISCRSSQSLEYSDGYTYLEWYLQKPGQSPQVLIYGVSNRFSGVPDRFIGSGSGTDFTLKISRVEPEDLGVYYCFQATHDPYTFGAGTRLELK |  |  |  | 0.0614 nM | 5.12e-05 s⁻¹ | 834000 M⁻¹ s⁻¹ |  |  |  |  |
| anti-CD4 rat monoclonal antibody KM4067 (antibody, V domains shown, Rat hybridoma IgG with a kappa light chain) VH: QVKLLQSGAALVKPGASVKMSCKASGYTFTDYWVHWVKQSHGKSLEWIGEIYPNNNTTNFNEKFKGKATLTVDKFTSTAYMELSRLTSEDSAIYYCTRGTVYYGLGYFDHWGQGVMVTVSS VL: DIRMTQSPASLSASLGETVNIECLASEDVYSDLAWYQQKPGKSPQLLIYNANNLQSGVPSRFSGSGSGTRYSLKINSLQSEDVATYFCQQYNNYPPYTFGAGTKLELK | 0.541 nM | 0.000473 s⁻¹ | 875000 M⁻¹ s⁻¹ |  |  |  |  |  |  |  |
| anti-CD4 chimeric antibody KM4047 (antibody, V domains shown, Variable regions of rat KM4067 joined to the '113F type' human IgG1/IgG3 heavy chain constant region (US2007/0148165) and a human kappa constant region; Expressed in FUT8 knockout CHO cells (0% fucose)) VH: QVKLLQSGAALVKPGASVKMSCKASGYTFTDYWVHWVKQSHGKSLEWIGEIYPNNNTTNFNEKFKGKATLTVDKFTSTAYMELSRLTSEDSAIYYCTRGTVYYGLGYFDHWGQGVMVTVSS VL: DIRMTQSPASLSASLGETVNIECLASEDVYSDLAWYQQKPGKSPQLLIYNANNLQSGVPSRFSGSGSGTRYSLKINSLQSEDVATYFCQQYNNYPPYTFGAGTKLELK |  |  |  | 0.369 nM | 0.000488 s⁻¹ | 1.33e+06 M⁻¹ s⁻¹ |  |  |  |  |
| anti-CD4 human antibody 6G5-1 (antibody, V domains shown) VH: QVQLQQWGAGLLKPSETLSLTCAVYGGSFSGYYWSWIRQPPGKGLEWIGEINHSGSTNYNPSLKSRVTISVDTSKNQFSLKLSSVTAADTAVYYCARVINWFDPWGQGTLVTVSS VL: DIQMTQSPSSVSASVGDRVTITCRASQDISSWLAWYQHKPGKAPKLLIYAASSLQSGVPSRFSGSGSGTDFTLTISSLQPEDFATYYCQQANSFPYTFGQGTKLEIKR |  |  |  | 1.46 nM | 0.000872 s⁻¹ | 595000 M⁻¹ s⁻¹ | 1.54 nM | 0.000824 s⁻¹ | 534000 M⁻¹ s⁻¹ |  |
| anti-CD4 rat monoclonal antibody KM4068 (antibody, V domains shown, Rat hybridoma IgG with a kappa light chain) VH: QVQLKESGPGLVQPSQTLSLTCTVSGLSLTSNSVSWIRQPPGKGLEWMGIIWSNGDTDYNSAIKSRLSISRDTSKSQVFLKMNSLQTEDTAMYFCANPYYGYNFPFDYWGQGVMVTVSS VL: DIQMTQSPASLSASLEEIVTITCKASQGIDNYLSWYQQKPGKSPQLLIYDATSLADGVPSRFSGSRSGTQYSLKISRPQVDDSGIYYCLQSYSTPFTFGSGTKLEIK | 1.1 nM | 0.00204 s⁻¹ | 1.85e+06 M⁻¹ s⁻¹ |  |  |  |  |  |  |  |
| anti-CD4 chimeric antibody KM4048 (antibody, V domains shown, Variable regions of rat KM4068 joined to the '113F type' human IgG1/IgG3 heavy chain constant region (US2007/0148165) and a human kappa constant region; Expressed in FUT8 knockout CHO cells (0% fucose)) VH: QVQLKESGPGLVQPSQTLSLTCTVSGLSLTSNSVSWIRQPPGKGLEWMGIIWSNGDTDYNSAIKSRLSISRDTSKSQVFLKMNSLQTEDTAMYFCANPYYGYNFPFDYWGQGVMVTVSS VL: DIQMTQSPASLSASLEEIVTITCKASQGIDNYLSWYQQKPGKSPQLLIYDATSLADGVPSRFSGSRSGTQYSLKISRPQVDDSGIYYCLQSYSTPFTFGSGTKLEIK |  |  |  | 0.651 nM | 0.00381 s⁻¹ | 5.85e+06 M⁻¹ s⁻¹ |  |  |  |  |
| anti-CD4 chimeric antibody KM4049 (antibody, V domains shown, Variable regions of rat KM4069 joined to the '113F type' human IgG1/IgG3 heavy chain constant region (US2007/0148165) and a human kappa constant region; Expressed in FUT8 knockout CHO cells (0% fucose)) VH: QVQLKESGPGLVQPSQTLSLTCTVSGSSLTSNSVSWIRQPPGKGLEWMGVIWSNGDADYNSAIKSRLSISRDTSKSQVFLKMNSLQTEDTAMYFCASPYYGYYFPFDYWGQGVMVTVSS VL: DIQMTQSPASLSASLEEIVTITCKASQAIDAYLSWYQQKPGKSPQLLIYDATSLADGVPSRFSGSRSGTQYSLKISRPQVDDSGIYYCLQSYSTPFTFGSGTKLEIK |  |  |  | 0.2 nM | 0.00116 s⁻¹ | 5.77e+06 M⁻¹ s⁻¹ |  |  |  |  |
| anti-CD4 rat monoclonal antibody KM4069 (antibody, V domains shown, Rat hybridoma IgG with a kappa light chain) VH: QVQLKESGPGLVQPSQTLSLTCTVSGSSLTSNSVSWIRQPPGKGLEWMGVIWSNGDADYNSAIKSRLSISRDTSKSQVFLKMNSLQTEDTAMYFCASPYYGYYFPFDYWGQGVMVTVSS VL: DIQMTQSPASLSASLEEIVTITCKASQAIDAYLSWYQQKPGKSPQLLIYDATSLADGVPSRFSGSRSGTQYSLKISRPQVDDSGIYYCLQSYSTPFTFGSGTKLEIK | 0.482 nM | 0.000584 s⁻¹ | 1.21e+06 M⁻¹ s⁻¹ |  |  |  |  |  |  |  |
| anti-CD4 rat monoclonal antibody KM4065 (antibody, V domains shown, Rat hybridoma IgG with a kappa light chain) VH: EVQLVESGGGLVQPGRSMKLSCAASGFTFSNYGMAWVRQAPTKGLEWVATISYDGSITYYRDSVKGRFTISRDHAKSTLYLQMNSLRSEDTATYYCTREEQYSSWYFDFWGPGIMVTVSS VL: DIVLTQSPALAVSLGQRATISCRASQSVSISSHDLMQWYQQKPGQQPKLLIYDAFNLASGIPVRFSGSGSGTDFTLTIDPVQADDIATYYCQQSKDDPYTFGAGTKLELK | 0.00426 nM | 1.52e-06 s⁻¹ | 357000 M⁻¹ s⁻¹ |  |  |  |  |  |  |  |
| anti-CD4 humanized antibody HV3LV0 (antibody, V domains shown, Expressed from the humanized antibody expression vector pKANTEX93) VH: EVQLVESGGGLVQPGRSLRLSCAASGFTFSNYGMAWVRQAPGKGLEWVATISYDGSITYYRDSVKGRFTISRDNSKNTLYLQMNSLRAEDTATYYCTREEQYSSWYFDFWGQGILVTVSS VL: DIQLTQSPSSLSASVGDRVTITCRASQSVSISSHDLMQWYQQKPGKAPKLLIYDAFNLASGVPSRFSGSGSGTDFTLTISSLQPEDFATYYCQQSKDDPYTFGQGTKLEIK |  |  |  |  |  |  | < 0.00752 nM | < 1e-05 s⁻¹ | 1.33e+06 M⁻¹ s⁻¹ | binding activity relative to the anti-CD4 chimeric antibody KM4045 [4]: 0.5 fold of KM4045; Kd [5]: ≤ 0.1 nM |
| anti-CD4 humanized antibody HV0LV0 (antibody, V domains shown, CDRs of KM4065 grafted into human framework regions; Expressed from the humanized antibody expression vector pKANTEX93) VH: EVQLVESGGGLVQPGRSLRLSCAASGFTFSNYGMAWVRQAPGKGLEWVATISYDGSITYYRDSVKGRFTISRDNSKNTLYLQMNSLRAEDTAVYYCAREEQYSSWYFDFWGQGTLVTVSS VL: DIQLTQSPSSLSASVGDRVTITCRASQSVSISSHDLMQWYQQKPGKAPKLLIYDAFNLASGVPSRFSGSGSGTDFTLTISSLQPEDFATYYCQQSKDDPYTFGQGTKLEIK |  |  |  |  |  |  | 0.0195 nM | 2.86e-05 s⁻¹ | 1.47e+06 M⁻¹ s⁻¹ | Kd [5]: ≤ 0.1 nM |
| anti-CD4 humanized antibody HV2LV0 (antibody, V domains shown, Expressed from the humanized antibody expression vector pKANTEX93; also called KM8045; humanized antibody KM8045) VH: EVQLVESGGGLVQPGRSLRLSCAASGFTFSNYGMAWVRQAPGKGLEWVATISYDGSITYYRDSVKGRFTISRDNSKNTLYLQMNSLRAEDTAVYYCTREEQYSSWYFDFWGQGILVTVSS VL: DIQLTQSPSSLSASVGDRVTITCRASQSVSISSHDLMQWYQQKPGKAPKLLIYDAFNLASGVPSRFSGSGSGTDFTLTISSLQPEDFATYYCQQSKDDPYTFGQGTKLEIK |  |  |  |  |  |  | < 0.00877 nM | < 1e-05 s⁻¹ | 1.14e+06 M⁻¹ s⁻¹ | binding activity relative to the anti-CD4 chimeric antibody KM4045 [4]: 0.5 fold of KM4045; Kd [5]: ≤ 0.1 nM |
